This assay deals with T1, 15N,13C-labeled tau K18+ (residues Gln244-Glu380 of 4R tau) (UniProt P10636-8 244-380).
T1 construct: Uniformly 15N,13C isotope-labelled for NMR; purified as the unlabeled protein; also called tau K18+ monomer; tau monomers; source: E. coli BL21-Gold, M9 medium with 15NH4Cl and 13C-glucose, purified (boiling, HiTrap SP HP ion exchange, Superdex 75)
In words: NMR titration; 1H-15N HSQC, 0.1 mM 15N,13C-labeled tau K18+ in 100 mM KCl, 20 mM NaH2PO4, 1 mM TCEP, 5%/95% D2O/H2O, pH 7.0, without or with 1 mM peptide (10-fold molar excess), 25 °C; chemical shift perturbation; one concentration, changes seen over time (2.5 months at 4 °C for D-TLKIVWI). To be noted: both partners purified.

T1 sequence (P10636 561-697): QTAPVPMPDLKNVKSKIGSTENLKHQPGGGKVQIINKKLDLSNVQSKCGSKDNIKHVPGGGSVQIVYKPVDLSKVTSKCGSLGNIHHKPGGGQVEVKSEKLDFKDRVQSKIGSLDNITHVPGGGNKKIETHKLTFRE

B1: L-TLKIVWI (peptide)
peptide: TLKIVWI
notes: L-enantiomer of the designed peptide D-TLKIVWI; All L-amino acids; also called L-TLKIVWX (X = I); source: synthetic peptide (GenScript, purified to ≥98%)
Turning to B1, the binding result is reported as “binds”.

Source of the values: paper PMC11100904, “How short peptides can disassemble ultra-stable tau fibrils extracted from Alzheimer’s disease brain by a strain-relief mechanism” (Research Square, 2024).
